# Source: paper PMC4274662, “A novel cytosolic NADH:quinone oxidoreductase from Methanothermobacter marburgensis” (Bioscience Reports, 2014)
# B1: MmNQO (Methanothermobacter marburgensis str. Marburg) (protein)
# chain: MHVYILFAHPSRKSFSREVLEAFTEGLSEAGHTYEVGDLYRMNFRSELSQEEYLREISQEAGSPLPEDVMEEHERIGRADALAFIYPLWWSDCPAKLKGWFDRVWTYGYAYFYEDGERGTRIDIEKAVVLCSAGHTEEDLEGTGIAESMRSVMLGDRLLGVGVKNVTMEILGGMVPGDDSCREINLMRARRAGRNL
# notes: full length 196 residues, N-terminal MAS added, non-cleavable C-terminal His6 tag (EHHHHHH) kept; pET21, E. coli BL21(DE3); 23538 Da; homodimer with FMN
# Key:
# Format in all cases: biochemical, Methanothermobacter marburgensis
# [1] = substrate: NC(=O)C1=CN([C@@H]2O[C@H](COP(=O)(O)OP(=O)(O)OC[C@H]3O[C@@H](n4cnc5c(N)ncnc54)[C@H](O)[C@@H]3O)[C@@H](O)[C@H]2O)C=CC1; assay: purified protein; details: 1 mM coenzyme Q1 as acceptor, 50 mM Mops pH 7.4, 30°C
# [2] = substrate: NC(=O)C1=CN([C@@H]2O[C@H](COP(=O)(O)OP(=O)(O)OC[C@H]3O[C@@H](n4cnc5c(N)ncnc54)[C@H](OP(=O)(O)O)[C@@H]3O)[C@@H](O)[C@H]2O)C=CC1; assay: purified protein; details: 1 mM coenzyme Q1 as acceptor, 50 mM Mops pH 7.4, 30°C
# [3] = substrate: CN(C)c1ccc(N=Nc2ccccc2C(=O)O)cc1; assay: reduction with electron donor, absorbance; details: electron acceptor, donor not stated (presumably NADH), varied substrate not stated, general method varies the donor, 50 mM Mops pH 7.4, 30°C
protein,measurement,setting,value
B1,Km,[1],96.8 µM
same,kcat,[1],0.26 s⁻¹
same,kcat/Km,[1],2680 M⁻¹ s⁻¹
same,Km,[2],111.6 µM
same,kcat,[2],0.243 s⁻¹
same,kcat/Km,[2],2170 M⁻¹ s⁻¹
same,Km,[3],683 µM
same,kcat,[3],0.106 s⁻¹
